Assay [1] has as its target Spindlin1/C11orf84 complex (human) (UniProt Q9BUA3). Description: ITC; 25 °C, MicroCal ITC200; 20 mM HEPES pH 7.5, 150 mM NaCl; 0.8 mM H3 peptide injected into 50 μM protein or complex in the sample cell. In general terms: Isothermal titration calorimetry measures the heat released or taken up as one component is titrated into another.
The target of assay [2] is Spindlin1 Y98A/C11orf84 complex (human) (UniProt Q9Y657). Description: ITC; 25 °C, MicroCal ITC200; 20 mM HEPES pH 7.5, 150 mM NaCl; 50 μM Spindlin1 or Spindlin1/C11orf84 complex in the cell, 0.8 mM peptide injected.
Target sequence in this assay (Q9Y657 50-262 Y98A, chain 1 of 2): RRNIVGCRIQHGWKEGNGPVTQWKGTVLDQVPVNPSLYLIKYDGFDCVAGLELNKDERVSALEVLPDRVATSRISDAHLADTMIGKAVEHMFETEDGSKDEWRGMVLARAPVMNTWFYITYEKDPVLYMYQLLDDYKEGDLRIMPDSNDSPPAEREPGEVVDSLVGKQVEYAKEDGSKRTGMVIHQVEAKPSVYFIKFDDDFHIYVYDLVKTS
Target sequence in this assay (Q9BUA3 whole entry, chain 2 of 2, further chain): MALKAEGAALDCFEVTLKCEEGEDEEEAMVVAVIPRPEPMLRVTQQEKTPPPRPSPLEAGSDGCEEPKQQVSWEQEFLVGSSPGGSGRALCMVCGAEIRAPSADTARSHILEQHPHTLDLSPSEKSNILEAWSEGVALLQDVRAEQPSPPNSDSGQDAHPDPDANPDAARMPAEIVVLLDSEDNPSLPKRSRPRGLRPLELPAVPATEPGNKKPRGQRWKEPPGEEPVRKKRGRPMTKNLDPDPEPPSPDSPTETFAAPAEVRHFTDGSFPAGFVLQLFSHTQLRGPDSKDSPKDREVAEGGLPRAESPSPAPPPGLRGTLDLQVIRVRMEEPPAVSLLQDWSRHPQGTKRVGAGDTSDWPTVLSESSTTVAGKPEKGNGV
The target in assay [3] is Spindlin1 Y91A/C11orf84 complex (human) (UniProt Q9Y657). The assay is described as above.
Target sequence in this assay (Q9Y657 50-262 Y91A, chain 1 of 2): as the sequence (Q9Y657 50-262 Y98A, chain 1 of 2) above, with Y42A, A49Y counted along it
Target sequence in this assay (Q9BUA3 whole entry, chain 2 of 2, further chain): as the sequence (Q9BUA3 whole entry, chain 2 of 2, further chain) above
Assay [4] addresses Spindlin1 W72A/C11orf84 complex (human) (UniProt Q9Y657). Described as above.
Target sequence in this assay (Q9Y657 50-262 W72A, chain 1 of 2): as the sequence (Q9Y657 50-262 Y98A, chain 1 of 2) above, with W23A, A49Y counted along it
Target sequence in this assay (Q9BUA3 whole entry, chain 2 of 2, further chain): as the sequence (Q9BUA3 whole entry, chain 2 of 2, further chain) above
Assay [5] deals with Spindlin1/C11orf84 complex (human) (UniProt Q9Y657). Described as above.
In assay [6] the target is Spindlin1 (aa: 50–262) (human) (UniProt Q9Y657). The assay is described as above.
Sequence of Spindlin1 (aa: 50–262) (human) (Q9Y657 50-262): as the sequence (Q9Y657 50-262 Y98A, chain 1 of 2) above, with A49Y counted along it
The target in assay [7] is Spindlin1 F141A/C11orf84 complex (human) (UniProt Q9Y657). Described as above.
Target sequence in this assay (Q9Y657 50-262 F141A, chain 1 of 2): as the sequence (Q9Y657 50-262 Y98A, chain 1 of 2) above, with A49Y, F92A counted along it
Target sequence in this assay (Q9BUA3 whole entry, chain 2 of 2, further chain): as the sequence (Q9BUA3 whole entry, chain 2 of 2, further chain) above
For assay [8], the target named is Spindlin1 W62A/C11orf84 complex (human) (UniProt Q9Y657). Described as above.
Target sequence in this assay (Q9Y657 50-262 W62A, chain 1 of 2): as the sequence (Q9Y657 50-262 Y98A, chain 1 of 2) above, with W13A, A49Y counted along it
Target sequence in this assay (Q9BUA3 whole entry, chain 2 of 2, further chain): as the sequence (Q9BUA3 whole entry, chain 2 of 2, further chain) above
Assay [9] addresses Spindlin1 W62A/W72A/C11orf84 complex (human) (UniProt Q9Y657). Described as above.
Target sequence in this assay (Q9Y657 50-262 W62A/W72A, chain 1 of 2): as the sequence (Q9Y657 50-262 Y98A, chain 1 of 2) above, with W13A, W23A, A49Y counted along it
Target sequence in this assay (Q9BUA3 whole entry, chain 2 of 2, further chain): as the sequence (Q9BUA3 whole entry, chain 2 of 2, further chain) above
Assay [10] addresses Spindlin1 Y98A/C11orf84 complex (human) (UniProt Q9Y657). Description: ITC; 25 °C, MicroCal ITC200; 20 mM HEPES pH 7.5, 150 mM NaCl; 0.8 mM H3 peptide injected into 50 μM protein or complex in the sample cell.
The target in assay [11] is Spindlin1 Y91A/C11orf84 complex (human) (UniProt Q9Y657). Described as above.
Assay [12] has as its target Spindlin1 W72A/C11orf84 complex (human) (UniProt Q9Y657). Described as above.
The target of assay [13] is Spindlin1 D173A/C11orf84 complex (human) (UniProt Q9Y657). The description is as above.
The target of assay [14] is Spindlin1 F141A/C11orf84 complex (human) (UniProt Q9Y657). The description is as above.
Assay [15] deals with Spindlin1 W62A/C11orf84 complex (human) (UniProt Q9Y657). Described as above.
Assay [16] has as its target Spindlin1 W62A/W72A/C11orf84 complex (human) (UniProt Q9Y657). The assay is described as above.

Regarding H3K4me3 peptide, H3 (1-12), in assay [1], the Kd was 213 nM and the stoichiometry N turned out to be 1.01.
The matching figures for H3K4me3K9me2 peptide, H3 (1-12): 42 nM and 1.01.
In the case of H3K4me3K9me3 peptide, the fold reduction in binding affinity against wild type in assay [2] came to 3 fold; in assay [3] it was 3 fold; in assay [4] it was 3 fold; in [7], 40 fold; in assay [8] it was 3 fold; in assay [9], 10 fold. In addition, the dissociation constant (Kd) came out at 20 nM in assay [5] and 46 nM in assay [6].
For the substance H3K4me3K9me3 peptide, H3 (1-12), the stoichiometry N in assay [10] was determined as 1.07; in [1], 1.02; in [11] it was 1.07; in assay [12], 1.07; in [13] it was 1.04; in assay [14], 1.03. Besides, the figures for the stoichiometry N in [15] and in assay [16] were 1.06 and 1, respectively.
As to H3K4me3R8me2a peptide, H3 (1-12), in assay [1], the Kd came out at 82 nM and the stoichiometry N worked out at 1.04.
As to H3K9me3 peptide, H3 (1-12), in assay [1], the Kd worked out at 2880 nM and the stoichiometry N was 1.02.

One may read the Kd as a measure of binding affinity in units of concentration. For orientation: stoichiometry N means a count of units in the complex or per binding partner.

The values above are taken from publication PMC7878818.
